The target in series [1] is T1, CREB 285bZIP wild type (pseudo-WT, Cys to Ser) (human, UniProt P16220-1 285-339, C300S;C310S;C337S).
T1 sequence: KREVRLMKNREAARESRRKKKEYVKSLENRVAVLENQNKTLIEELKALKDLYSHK
The series is described as follows: NMR; two-fold excess DNA over dimer; basic region folds to helix; 10 mM Mg2+; 10 mM MES pH 6.5, 150 mM NaCl, 10 mM MgCl2, 0.05% Tween-20, 25 C; NMR: 10 mM Tris-d11, 150 mM NaCl, 10 mM MgCl2, 1 mM NaN3, 5% D2O (NOE at 25 C). Conditions: protein: recombinant; tags: extra N-terminal Gly after TEV cleavage; His6-GB1 removed; chain copies: 2; label: none; blunt, self-complementary, 2 copies.

For series [2], the target named is T2, CREB 285bZIP (bZIP domain of human cAMP-response element binding protein, residues 285-339, cysteines … (human)).
T2 chain: T1 sequence
The series is described as follows: stopped-flow urea refolding kinetics (intrinsic tyrosine fluorescence); 285bZIP in 8 M urea mixed 1:10 with buffer of lower urea concentrations; 2.2, 4.5 and 9.1 uM CREB; excitation 278 nm, 305 nm cut-off filter; 25.0 C; traces fit to a 2-state reversible 2P to P2 model; L and k1 extrapolated by straight line fits to the absence of urea; dimer to monomers. As to conditions: both partners purified.

Where no end group is shown, it is not given here.

B1: symmetric CRE DNA (NMR) (dsDNA)
DNA 1: AGATGACGTCATCT
DNA 2: AGATGACGTCATCT
Turning to B1, the binding result in series [1] is “binds”.

B2: CREB 285bZIP (bZIP domain of human cAMP-response element binding protein, residues 285-339, cysteines replaced with serines) (domain or fragment)
chain: T1 sequence
modifications: also: homodimer
In the case of B2, in series [2], the Kd was 11 ± 2 nM and the kon was 7.1e+06 ± 500000 M⁻¹ s⁻¹.

These data come from PMC11514473, “The transition state for coupled folding and binding of a disordered DNA binding domain resembles the unbound state” (Nucleic Acids Research, 2024).
